This is an account of results in the RNAGym collection of RNA variant scans (doi:10.1093/nar/gkz1192).

Sequences and labels used below:
B1: CPEB3 Ribozyme (parent)
chain: UAACAGGGGGCCACAGCAGAAGCGUUCACGUCGCAGCCCCUGUCAGAUUCUGGUGAAUCUGCGAAUUCUGCUGUAUAUCUC

In the data set the parent is B1. Nature of the data set: self-cleavage, relative activity (ratio to wild type); higher = more cleavage; in vitro, sequencing. In outline: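 Relative activity was defined as the cleaved/total read fraction for a variant divided by the same fraction for the unmutated ribozyme. CPEB3 self-cleaving ribozyme libraries were made by rounds of error-prone PCR, barcoded, and transcribed in vitro with T7 RNA polymerase for 5 hours at 37°C, and cleavage ran through transcription plus a 15 min DNase I step before EDTA. Illumina sequencing of template-switched reverse transcripts gave the reads, and DNA sequencing mapped the barcodes. Averages come from three batches, using variants with at least 5 reads.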
Regarding A57G U78C, the self-cleavage was 0.83.
A57G U78G: the self-cleavage came to 1.12.
With A57G U78A, the self-cleavage turned out to be 0.97.
A57G U66G: the self-cleavage is 0.53.
Consider A57G U66C, for which the self-cleavage was 0.4.
To A57G U66A belongs 0.37; to U58C G63U, 0.91.
Consider U58C G63C, for which the self-cleavage was 0.54.
The result for U58C G63A reads 0.51; that for A57C U78C, 0.66; that for A57C U78A, 0.4.
For A57U A75G, the self-cleavage amounted to 0.69.
To A57U A75U belongs 1.08.
Turning to C59A U74G, the self-cleavage came to 0.74.
To C59A U74C belongs 0.5; to A57G C81U, 1.13; to A57G C81G, 1.2.
As for A57C U66C, the self-cleavage came to 0.16.
With A57C U66A, the self-cleavage was found to be 0.2.
The result for U58A U74C reads 0.67.
The result for U58A U74A reads 0.6; that for A57C C62U, 0.14.
The result for U58G U78C reads 0.34; that for U58G U78A, 0.4; that for C59A U69A, 0.18.
C59A U69C: the self-cleavage was 0.23.
On to A57G U58A, for which the self-cleavage stood at 0.28.
For the variant A57G U58G, the self-cleavage came to 0.22.
To A57G U58C belongs 0.33; to U60A C81U, 0.76; to U60A C81G, 0.93.
The result for A57C U60A reads 0.14; that for U58G A65G, 0.1.
The result for A57C A75U reads 0.58; that for C59U A64U, 0.25; that for C59G U69C, 0.2.
Consider A57U U74C, for which the self-cleavage worked out at 1.03.
For the variant A57U U74A, the self-cleavage came out at 1.23.
To A56U U66C belongs 0.32.
To A56U U66A belongs 0.25; to C59G U74A, 0.37; to C59A U80G, 0.33.
As for C59A U80C, the self-cleavage was 0.38.
To A56U G70A belongs 0.35; to A56U G70U, 0.21; to A57G G61U, 0.64.
As for A57G G61A, the self-cleavage was determined as 0.59.
To A57U U66C belongs 0.33; to U58C A64G, 0.36; to U58C A64U, 0.33.
Consider A56U A65U, for which the self-cleavage stood at 0.21.
As for C59A G73U, the self-cleavage came out at 1.11.
To A57C A65G belongs 0.17.
The result for A57U G70A reads 0.38; that for A57U G70U, 0.19.
To U58A G70C belongs 0.14.
In the case of A56U U72C, the self-cleavage amounted to 0.81.
To A56U U72G belongs 0.5; to A56U U72A, 0.46; to C59U A77G, 0.94.
The result for A56U C59G reads 0.13; that for A56U C59U, 0.19.
As for A56U C59A, the self-cleavage turned out to be 0.28.
For the variant U58C C81U, the self-cleavage was 0.68.
The result for U58C C81A reads 0.75; that for U58C C81G, 0.82.
To A57G A75U belongs 1.01.
The result for A57G A75G reads 0.74; that for A56U C62U, 0.21; that for U58C U60A, 0.26.
As to U58C U60G, the self-cleavage stood at 0.24.
For the variant U58C U60C, the self-cleavage amounted to 0.3.
The result for A57G G63A reads 0.84; that for U58C U67A, 0.28.
Turning to U58C U67C, the self-cleavage is 0.29.
The result for A57G U74A reads 1.2; that for A57G U74G, 1.23; that for A57G U74C, 1.15.
To A57G C59A belongs 0.2; to A57G C59G, 0.21; to A57G C59U, 0.83.
Consider A56U U76A, for which the self-cleavage is 0.84.
On to A56U U76G, for which the self-cleavage was determined as 0.89.
The result for A56U U76C reads 0.8; that for A56U C81A, 1.2.
The result for U60A C79A reads 0.88.
With U60A C79U, the self-cleavage was 0.69.
The result for A56U U69A reads 0.33.
To A56U U69C belongs 0.38.
For A56U U69G, the self-cleavage worked out at 0.46.
Turning to U58A C59A, the self-cleavage was 0.25.
As for C59G U78C, the self-cleavage turned out to be 0.27.
To C59A A77G belongs 0.31.
The result for C59A A64G reads 0.2; that for A56U U80C, 0.83.
The result for A56U U80A reads 1.
On to A57U A77U, for which the self-cleavage was 1.01.
The result for A57U A77G reads 0.76; that for U58C U72C, 0.59.
To U58C U72A belongs 0.39.
As for U58C U72G, the self-cleavage was 0.55.
Turning to U58A U69A, the self-cleavage was found to be 0.23.
The result for U58A U69C reads 0.28; that for U58C U76C, 0.67; that for U58C U76G, 0.69.
The result for U58C U76A reads 0.68.
The result for C59A C68A reads 0.19.
As for C59A A65G, the self-cleavage amounted to 0.13.
To C59A A65U belongs 0.05; to A57U A65G, 0.22.
As for U58A U67A, the self-cleavage turned out to be 0.32.
Take U58A U67C: the self-cleavage is 0.31.
As to U58C G61U, the self-cleavage was determined as 0.21.
The result for U58A U60C reads 0.23.
Turning to U58A U60G, the self-cleavage stood at 0.17.
For U58A U60A, the self-cleavage was determined as 0.17.
To U58A U78C belongs 0.42.
The result for A57C G61C reads 0.16.
To A57U U76A belongs 1.01; to A57U U76C, 0.94.
Turning to A57G U72G, the self-cleavage stood at 1.01.
A57G U72A: the self-cleavage was found to be 0.62.
Regarding A57G U72C, the self-cleavage turned out to be 1.05.
For the variant U58G U80C, the self-cleavage stood at 0.27.
With C59U G63A, the self-cleavage worked out at 0.86.
The result for U60A C62U reads 0.26.
To U60A C71U belongs 0.48; to U60A C71A, 0.39; to U60A C71G, 0.35.
The result for C59G U60C reads 0.16.
A57U U69A: the self-cleavage turned out to be 0.4.
With A57U U69C, the self-cleavage was determined as 0.3.
The result for A57U U69G reads 0.44; that for A57U C62U, 0.21; that for U58G U60A, 0.18.
Regarding U58G U60C, the self-cleavage came to 0.3.
On to A57U U78C, for which the self-cleavage came out at 0.68.
To A57U U78A belongs 1.21; to A57U U78G, 0.75.
In the case of A57C A77G, the self-cleavage is 0.45.
To A57U U67C belongs 0.22; to A57U U67A, 0.38.
Turning to C59U U72A, the self-cleavage amounted to 0.4.
Take C59U U72C: the self-cleavage stood at 1.14.
U58A C68U: the self-cleavage stood at 0.23.
A57G U67A: the self-cleavage worked out at 0.45.
The result for A57G U67C reads 0.35; that for A57G U67G, 0.38.
As for U58C U74C, the self-cleavage turned out to be 0.87.
The result for A56U U60A reads 0.3.
Take A56U U60C: the self-cleavage came out at 0.27.
As to A56U U60G, the self-cleavage came to 0.24.
With U58C C59U, the self-cleavage is 0.21.
For A56U C68U, the self-cleavage worked out at 0.55.
To A57G U60G belongs 0.26; to A57G U60C, 0.42.
Turning to A57G U60A, the self-cleavage is 0.4.
The result for U58C C79U reads 0.6; that for C59U U76C, 0.97.
The result for A57G C62U reads 0.33; that for A57G C71U, 0.32; that for U58G G63A, 0.45.
To U58C C62G belongs 0.27.
Regarding U58C C62A, the self-cleavage came out at 0.36.
With U58C C62U, the self-cleavage stood at 0.22.
For the variant C59U C62U, the self-cleavage was found to be 0.16.
The result for U58A G63A reads 0.59.
